Assays:
[1] = target: α5β1 integrin binding to fibronectin (Homo sapiens, UniProt P05556+P08648); settings: cited from earlier work
refractory solid tumors = assay: Phase I dose-escalation study: tumor response (RECIST); assay type: in vivo, human; design: key to Response outcome: Complete Response (CR): Disappearance of all target lesions confirmed by repeat imaging 25 to 28 days after CR first documented.; Partial Response (PR): At least a 30% decrease in the sum of LD of target lesions, taking as reference the baseline sum LD; Stable Disease (SD): Neither sufficient shrinkage to qualify for PR nor sufficient increase to qualify for PD, taking as references the smallest sum LD.; Progressive Disease (PD): At least a 20% increase in the sum of LD of target lesions, taking as reference the smallest sum LD recorded since treatment started, or the appearance of one or more new lesions
Experimental: A two-part Phase I open-label study was carried to determine the effects of treatment with up to 6 dose levels, from 0.5 mg/kg to 15.0 mg/kg of M200 (volociximab) in 21 human patients with a variety of refractory solid tumor types. The total duration of treatment for the first part was 6 weeks with physical assessments through 45 days after the last dose.
The dosing levels and schedule used in the study were as follows. M200 was administered to the 21 patients on days 1, 15, 22, 29, and 36. The dosing levels and numbers of patients per level were: 0.5 mg/kg (1 patient), 1.0 mg/kg (2 patient), 2.5 mg/kg (3 patients), 5.0 mg/kg (3 patients), 10.0 mg/kg (6 patients) and 15 mg/kg (6 patients). The dose was administered as an intravenous infusion over 1 hour. The first and second doses were separated by a two week period to allow sampling for single-dose pharmacokinetic data. The real-time PK measurements performed following the first dose were used to predict each patient's peak serum concentration following the fifth dose. If the predicted peak serum concentration following the fifth dose was <750 μg/mL, the patient received all 5 doses of M200. The remaining 3 doses were given weekly and followed by a 45-day evaluation period.
Patient evaluations during the study included the following: • a. Screening (within 14 days of study entry) of: medical history and physical examination, ECOG performance status, routine chemistry panel, complete blood count (CBC) with differential and platelets, sensitive C-reactive protein (CRP), urinalysis with microscopic analysis (UA/micro), electrocardiogram (ECG), chest radiograph (CXR), disease-directed body CT or MRI, urine pregnancy test within 48 hours prior to dosing, and coagulation studies (prothrombin [PT] and partial thromboplastin time [PTT]), anti-M200 antibodies (i.e., to detect cross-reactive HAMA or HACA) for patients who previously received murine or chimeric antibodies, head CT for patients with tumors that commonly metastasize to brain or CNS, and, in some patients, a biopsy to evaluate tumor vessel vascularity. • b. On-study laboratory evaluations: routine chemistry panel, urate, serum amylase, CBC with differential and platelets, UA/micro. • c. Routine disease-directed radiographic imaging (e.g., CT scanning) before and after treatment with M200 was used to evaluate tumor response using uni-dimensional, RECIST criteria. Target lesions were selected on the basis of their size (lesions with the longest diameter (LD)) and their suitability for accurate repetitive measurements (either by imaging techniques or clinically). A sum of the LD for all target lesions was calculated and reported as the baseline sum LD. The baseline sum LD was used as reference by which to characterize the objective tumor response. The following response criteria for the target lesions was used to assess the best overall response. • Complete Response (CR): Disappearance of all target lesions confirmed by repeat imaging 25 to 28 days after CR first documented. • Partial Response (PR): At least a 30% decrease in the sum of LD of target lesions, taking as reference the baseline sum LD, confirmed by repeat imaging 25 to 28 days after PR first documented. • Stable Disease (SD): Neither sufficient shrinkage to qualify for PR nor sufficient increase to qualify for PD, taking as references the smallest sum LD. • Progressive Disease (PD): At least a 20% increase in the sum of LD of target lesions, taking as reference the smallest sum LD recorded since treatment started, or the appearance of one or more new lesions. • d. Blood drawn for serum PK measurements, immunogenicity assays (anti-M200 antibodies), vascular growth factors, and measurement of bound and unbound α5β1 on peripheral blood monocytes. • e. A 3-mm punch biopsy of superficial tumor metastasis was obtained and frozen after the last treatment with M200 from patients who consented (not required for enrollment) to the procedure. […]

[2] = minimum effective in vitro concentration
[3] = target: α5β1 integrin found in rabbit (Oryctolagus cuniculus, UniProt A0A5F9C3C4+A0A5F9CXX2); assay: species cross-reactivity of anti-α5β1 antibody; assay type: binding
Sequence of α5β1 integrin found in rabbit (A0A5F9CXX2 1-1041): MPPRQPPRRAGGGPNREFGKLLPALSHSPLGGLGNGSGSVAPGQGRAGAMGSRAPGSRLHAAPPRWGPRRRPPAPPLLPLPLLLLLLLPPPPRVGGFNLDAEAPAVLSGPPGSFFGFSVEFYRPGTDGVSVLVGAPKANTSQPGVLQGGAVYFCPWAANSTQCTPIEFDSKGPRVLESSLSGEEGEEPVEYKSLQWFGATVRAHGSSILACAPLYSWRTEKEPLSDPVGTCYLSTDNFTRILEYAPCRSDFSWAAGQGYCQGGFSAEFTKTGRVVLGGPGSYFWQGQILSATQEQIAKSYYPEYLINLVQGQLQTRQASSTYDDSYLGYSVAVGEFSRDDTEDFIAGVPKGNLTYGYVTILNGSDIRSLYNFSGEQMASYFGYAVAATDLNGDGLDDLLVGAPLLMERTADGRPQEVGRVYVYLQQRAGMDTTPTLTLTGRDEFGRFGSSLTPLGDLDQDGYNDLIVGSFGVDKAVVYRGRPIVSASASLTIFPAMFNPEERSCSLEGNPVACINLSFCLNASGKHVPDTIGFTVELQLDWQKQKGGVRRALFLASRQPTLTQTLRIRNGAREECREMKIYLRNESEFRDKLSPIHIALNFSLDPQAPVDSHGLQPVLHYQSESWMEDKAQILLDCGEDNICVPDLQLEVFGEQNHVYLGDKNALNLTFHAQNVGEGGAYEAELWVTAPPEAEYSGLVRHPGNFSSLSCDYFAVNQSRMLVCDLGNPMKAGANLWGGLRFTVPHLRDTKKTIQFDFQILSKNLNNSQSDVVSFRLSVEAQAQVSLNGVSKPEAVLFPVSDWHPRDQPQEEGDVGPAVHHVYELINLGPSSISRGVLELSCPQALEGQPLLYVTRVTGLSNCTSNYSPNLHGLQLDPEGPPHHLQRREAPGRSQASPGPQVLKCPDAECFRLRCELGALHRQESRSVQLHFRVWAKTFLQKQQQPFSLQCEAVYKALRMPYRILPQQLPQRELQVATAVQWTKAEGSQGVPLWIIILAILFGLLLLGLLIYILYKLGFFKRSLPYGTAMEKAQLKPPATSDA
Sequence of α5β1 integrin found in rabbit (A0A5F9C3C4 21-798): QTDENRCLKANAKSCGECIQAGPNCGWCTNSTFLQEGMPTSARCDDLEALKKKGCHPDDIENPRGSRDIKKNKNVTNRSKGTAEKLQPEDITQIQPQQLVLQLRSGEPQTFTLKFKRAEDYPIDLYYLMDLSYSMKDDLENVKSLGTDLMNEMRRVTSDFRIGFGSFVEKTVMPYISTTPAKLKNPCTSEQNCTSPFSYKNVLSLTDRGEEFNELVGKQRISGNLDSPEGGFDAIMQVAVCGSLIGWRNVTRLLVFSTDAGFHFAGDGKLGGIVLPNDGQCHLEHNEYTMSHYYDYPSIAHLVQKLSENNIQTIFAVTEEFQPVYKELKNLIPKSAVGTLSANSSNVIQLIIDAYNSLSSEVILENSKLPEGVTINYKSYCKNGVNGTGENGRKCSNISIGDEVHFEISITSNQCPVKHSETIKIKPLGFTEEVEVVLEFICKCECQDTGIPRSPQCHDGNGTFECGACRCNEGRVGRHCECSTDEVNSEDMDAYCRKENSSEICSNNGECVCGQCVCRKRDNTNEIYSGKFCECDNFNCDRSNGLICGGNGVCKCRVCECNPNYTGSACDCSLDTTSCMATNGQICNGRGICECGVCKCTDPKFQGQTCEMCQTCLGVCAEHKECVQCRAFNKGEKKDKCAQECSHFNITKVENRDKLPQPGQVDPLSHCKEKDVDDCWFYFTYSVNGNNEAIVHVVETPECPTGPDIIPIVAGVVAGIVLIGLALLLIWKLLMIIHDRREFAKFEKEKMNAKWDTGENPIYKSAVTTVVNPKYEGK

[4] = human, in vivo, 10 mg/kg
Experimental: (§1) The serum for measuring M200 concentrations was obtained immediately before and after the first dose, and at 4, 24, 48, and 168 hours after completion of the first dose. Serum samples for measuring M200 concentrations were also taken immediately before, at the end, and 4 hours after the completion of each subsequent infusion. These samples were split and aliquots assayed before the next dose and again at the end of the study: end of 1st dose, 168 hours after 1st dose, immediately pre-dose (trough) and immediately post-dose (peak) for the 2nd, 3rd, 4th and 5th doses. The serum levels of M200 were measured by ELISA.
(§2) The plasma concentration-time data of M200 from each patient was subjected to a PK analysis. The following parameters were included in the calculations: peak (Cmax) and trough (Cmin) levels, terminal phase half-life (T1/2 β), area under the plasma-concentration time curve (AUC), elimination clearance (CL), and volume of distribution (V). Summary parameters were computed across patients from each treatment group. Changes in the PK parameters as a function of dose and time were also evaluated.

[5] = Phase I dose-escalation study: pharmacokinetics (serum ELISA)
Experimental: as §1, §2

VX2 carcinoma = assay: M200 VX2 rabbit tumor efficacy study; assay type: in vivo
Experimental: Starting on Day 5, tumor dimensions (Length, Width and Height) were measured in millimeters via electronic vernier calipers connected to a laptop computer at a minimum frequency of twice weekly. For consistency, the same trained technician performed the tumor measurements throughout the course of the study. Tumor volume was calculated using the formula: Length×Width×Height×0.52. Upon animal termination, tumors were carefully excised, trimmed and weighed. In addition, animals were weighed a minimum of once weekly. Representative samples of each tumor were preserved in sample cassette in formalin or OCT and flash frozen in liquid nitrogen.
Rabbits (30 total) were inoculated, either subcutaneously or intramuscularly with either a VX2 cell suspension (100 μl) or pieces of tumor (˜5-10 mm^3). The test group of 20 was treated with M200 at 10 mg/kg intravenously, twice weekly for 3 weeks. The control group of 10 animals was treated with a control IgG delivered by the same method as the M200. Tumor measurements, termination, weighing, tumor preservation and study duration were carried out according to the methods described above for the Pilot Study. In addition, one milliliter of blood was taken from an ear vessel on a weekly basis for serum analysis.

VX2 tumors = settings: rabbit, in vivo, 10 mg/kg
Experimental: Rabbits were inoculated on Day 0 with a cell suspension (100 μl) subcutaneously (left hind limb), and intramuscularly at a depth of about 3 mm (right hind limb). Intramuscular inoculation was carried out as follows. With the rabbit under ketamine/isoflurane anesthesia, a ˜2 cm incision was made parallel to the right femur with a scalpel on the anterior, lateral aspect of the femoral axis, ˜⅓ of the total femur length distally from the femoral-pelvic (hip) joint. Muscle groups were separated to create a ˜0.5 cm deep cavity. One VX2 tumor fragment from a donor animal was placed into the cavity. Skin was securely closed with sterile surgical staples or sutures and a topical antibiotic was applied to the wound site.
M200 was administered intravenously at 10 mg/kg dosage to a tumor-bearing rabbit and the tumor was excised 1 hour later. Tumor sections were stained with either: (i) an anti-human secondary antibody specific for tumor bound M200; (ii) IIA1 followed by an anti-mouse secondary to detect total α5β1; or (iii) a control IgG and anti-mouse secondary.

Sequence of α5β1 integrin binding to fibronectin (P08648 42-894 limits assumed): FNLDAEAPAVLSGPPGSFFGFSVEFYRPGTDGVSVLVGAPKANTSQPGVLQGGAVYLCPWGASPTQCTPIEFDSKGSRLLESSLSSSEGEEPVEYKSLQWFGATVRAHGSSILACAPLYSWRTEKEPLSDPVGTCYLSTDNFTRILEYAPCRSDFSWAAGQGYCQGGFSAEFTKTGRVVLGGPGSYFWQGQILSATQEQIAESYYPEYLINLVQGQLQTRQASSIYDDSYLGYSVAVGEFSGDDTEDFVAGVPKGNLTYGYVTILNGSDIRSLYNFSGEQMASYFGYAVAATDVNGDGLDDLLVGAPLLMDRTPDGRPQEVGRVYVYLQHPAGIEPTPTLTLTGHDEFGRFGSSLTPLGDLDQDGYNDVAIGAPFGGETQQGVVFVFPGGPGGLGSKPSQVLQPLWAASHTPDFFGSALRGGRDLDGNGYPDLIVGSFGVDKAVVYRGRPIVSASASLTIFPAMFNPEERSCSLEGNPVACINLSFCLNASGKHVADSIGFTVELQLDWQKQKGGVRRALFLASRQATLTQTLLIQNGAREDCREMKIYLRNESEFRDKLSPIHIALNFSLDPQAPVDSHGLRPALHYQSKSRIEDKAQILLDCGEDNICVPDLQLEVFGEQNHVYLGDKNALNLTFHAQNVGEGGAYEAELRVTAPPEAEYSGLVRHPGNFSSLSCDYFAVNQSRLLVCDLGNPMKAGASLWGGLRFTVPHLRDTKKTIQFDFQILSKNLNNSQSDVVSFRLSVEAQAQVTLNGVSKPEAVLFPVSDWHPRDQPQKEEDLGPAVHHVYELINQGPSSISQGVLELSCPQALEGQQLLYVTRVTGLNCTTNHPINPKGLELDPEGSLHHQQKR
Sequence of α5β1 integrin binding to fibronectin (P08648 895-1049 limits assumed): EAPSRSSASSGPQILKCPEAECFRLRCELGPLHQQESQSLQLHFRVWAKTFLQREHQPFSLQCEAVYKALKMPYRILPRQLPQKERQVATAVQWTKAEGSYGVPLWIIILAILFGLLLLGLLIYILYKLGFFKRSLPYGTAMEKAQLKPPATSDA
Sequence of α5β1 integrin binding to fibronectin (P05556 21-798): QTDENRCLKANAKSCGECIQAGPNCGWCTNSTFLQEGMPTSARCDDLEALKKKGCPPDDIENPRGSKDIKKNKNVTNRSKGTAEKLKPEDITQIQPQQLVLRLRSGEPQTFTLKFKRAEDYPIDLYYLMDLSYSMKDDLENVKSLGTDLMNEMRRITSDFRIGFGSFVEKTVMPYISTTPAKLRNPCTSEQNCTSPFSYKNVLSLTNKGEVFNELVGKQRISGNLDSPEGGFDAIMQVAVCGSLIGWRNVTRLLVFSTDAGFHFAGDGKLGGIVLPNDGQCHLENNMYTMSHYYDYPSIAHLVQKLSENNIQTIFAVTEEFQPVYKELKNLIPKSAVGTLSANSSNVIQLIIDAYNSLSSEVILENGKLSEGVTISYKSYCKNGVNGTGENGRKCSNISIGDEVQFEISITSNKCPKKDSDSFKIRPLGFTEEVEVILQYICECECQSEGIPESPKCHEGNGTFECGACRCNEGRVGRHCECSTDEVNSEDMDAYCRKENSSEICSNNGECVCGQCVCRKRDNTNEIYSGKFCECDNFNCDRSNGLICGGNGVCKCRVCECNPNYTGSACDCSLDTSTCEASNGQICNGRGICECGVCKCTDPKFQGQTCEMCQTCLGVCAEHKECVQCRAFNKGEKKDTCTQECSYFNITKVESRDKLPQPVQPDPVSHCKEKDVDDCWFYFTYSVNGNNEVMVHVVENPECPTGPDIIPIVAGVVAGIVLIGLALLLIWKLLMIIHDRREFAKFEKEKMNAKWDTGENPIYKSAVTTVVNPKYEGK

B1: IIA1: parent mouse IgG1 class anti-α5β1 antibody shown to inhibit α5β1 integrin binding to fibronectin (antibody, V domains shown)
VH: MAVLGLLLCLVTFPSCVLSQVQLKESGPGLVAPSQSLSITCTISGFSLTDYGVHWVRQPPGKGLEWLVVIWSDGSSTYNSALKSRMTIRKDNSKSQVFLIMNSLQTDDSAMYYCARHGTYYGMTTTGDALDYWGQGTSVTVSS
VL: MDFQVQIFSFLLISASVIMSRGQIVLTQSPAIMSASLGERVTMTCTASSSVSSNYLHWYQQKPGSAPNLWIYSTSNLASGVPARFSGSGSGTSYSLTISSMEAEDAATYYCHQYLRSPPTFGGGTKLEIK
modifications: mus muscalus
In the case of B1, the “inhibition of α5β1 integrin binding to fibronectin” value [1] is listed as “inhibit α5β1 integrin binding to fibronectin”.

B2: M200: chimeric IgG4 anti-α5β1 antibody derived from IIA1; generic name volociximab (antibody, V domains shown)
VH: MAVLGLLLCLVTFPSCVLSQVQLKESGPGLVAPSQSLSITCTISGFSLTDYGVHWVRQPPGKGLEWLVVIWSDGSSTYNSALKSRMTIRKDNSKSQVFLIMNSLQTDDSAMYYCARHGTYYGMTTTGDALDYWGQGTSVTVSS
VL: MDFQVQIFSFLLISASVIMSRGQIVLTQSPAIMSASLGERVTMTCTASSSVSSNYLHWYQQKPGSAPNLWIYSTSNLASGVPARFSGSGSGTSYSLTISSMEAEDAATYYCHQYLRSPPTFGGGTKLEIKDMSVDMSV
modifications: chimeric antibody
notes: chimeric IgG4 anti-α5β1 antibody derived from IIA1; generic name volociximab
In the case of B2, the Response outcome (refractory solid tumors; 0.5 mg/kg, CRC patient) is reported as “(PD) (Progressive Disease (PD): At least a 20% increase in the sum of LD of target lesions, taking as reference the smallest sum LD recorded since treatment started, or the appearance of one or more new lesions.)”, the Response outcome (refractory solid tumors; 1.0 mg/kg, HCC patient) is reported as “(SD)” and the Response outcome (refractory solid tumors; 1.0 mg/kg, PC patient) is reported as “(SD)”. For the same molecule, the Response outcome (refractory solid tumors; 2.5 mg/kg, CRC patient) was “(PD) (Progressive Disease (PD): At least a 20% increase in the sum of LD of target lesions, taking as reference the smallest sum LD recorded since treatment started, or the appearance of one or more new lesions.)”, the Response outcome (refractory solid tumors; 2.5 mg/kg, MEL Ocular patient) was “(PD) (Progressive Disease (PD): At least a 20% increase in the sum of LD of target lesions, taking as reference the smallest sum LD recorded since treatment started, or the appearance of one or more new lesions.)” and the Response outcome (refractory solid tumors; 2.5 mg/kg, NSCLC patient) was “(SD)”. The Response outcome (refractory solid tumors; 5.0 mg/kg, EC patient) was “(PD) (Progressive Disease (PD): At least a 20% increase in the sum of LD of target lesions, taking as reference the smallest sum LD recorded since treatment started, or the appearance of one or more new lesions.)”, the Response outcome (refractory solid tumors; 5.0 mg/kg, HCC patient) was “(SD)” and the Response outcome (refractory solid tumors; 5.0 mg/kg, THY patient) was “(PD) (Progressive Disease (PD): At least a 20% increase in the sum of LD of target lesions, taking as reference the smallest sum LD recorded since treatment started, or the appearance of one or more new lesions.)”. The Response outcome (refractory solid tumors; 10.0 mg/kg, BC patient) was “(SD)”, the Response outcome (refractory solid tumors; 10.0 mg/kg, CRC patient (two patients)) was “(SD)” and the Response outcome (refractory solid tumors; 10.0 mg/kg, MEL patient) was “(PD) (Progressive Disease (PD): At least a 20% increase in the sum of LD of target lesions, taking as reference the smallest sum LD recorded since treatment started, or the appearance of one or more new lesions.)”. The Response outcome (refractory solid tumors; 10.0 mg/kg, PARO patient) was “(SD)”, the Response outcome (refractory solid tumors; 10.0 mg/kg, RCC patient) was “(SD)” and the Response outcome (refractory solid tumors; 15.0 mg/kg, EC patient) was “(PD) (Progressive Disease (PD): At least a 20% increase in the sum of LD of target lesions, taking as reference the smallest sum LD recorded since treatment started, or the appearance of one or more new lesions.)”. For the same molecule, the Response outcome (refractory solid tumors; 15.0 mg/kg, PRO patient) was “(PD) (Progressive Disease (PD): At least a 20% increase in the sum of LD of target lesions, taking as reference the smallest sum LD recorded since treatment started, or the appearance of one or more new lesions.)”, the “overall response outcome: progressive disease (PD)” value (refractory solid tumors; 21 treated patients, 0.5-15 mg/kg) was 10 patients and the “minimum effective in vitro concentration” value [2] was 2 to 3 µg/mL. For the same molecule, the “recognition of α5β1 integrin found in rabbit” value [3] was “does recognize”, the T1/2 [4] was 15.7 days and the mean trough level ([5]; 10 mg/kg, two weeks after the 1st dose) was 82 µg/mL. For the same molecule, the “pharmacokinetics, linearity” value ([5]; slower clearance at the higher concentrations) was “non-linear pharmacokinetics”, the “circulating level of M200 at which tumor growth was inhibited” value (VX2 carcinoma; rabbit VX2 model) was at least 50 µg/mL and the VX2 tumor growth (VX2 carcinoma; rabbit, 10 mg/kg intravenously, twice weekly for 3 weeks) was “able to inhibit tumor growth”. For the same molecule, the immunogenicity (VX2 carcinoma; rabbits, immune response as early as two weeks, eventually all animals seroconvert) was “immunogenic in rabbits” and the “accessibility of subcutaneous and intramuscular VX2 tumors to antibody, assessed by IHC” value (VX2 tumors) was “accessible to M200”.
